{
  "source": "the DeepSol protein solubility set",
  "test": "soluble on expression in E. coli; label from the status in PepcDB or PDB records",
  "data": [
    {"sequence": "MGHHHHHHSHMEKSELKPAGVFHFFNEICQVPRPSKKEEKMIAYLKAFGEKHNLETKVDEAGNVLIKKPATPGKENLKTVILQSHVDMVCEKNNDTDHDFLTDPIETEIDGEWMKAKGTTLGADNGIGVATELAILADDSIEHGPIECLFTVDEETGLTGAFALKEGFMSGEILLNLDSEDEGELYIGCAGGIDTVAEFQYENEMTPISHLCFRITVKGLKGGHSGGDIHLGRGNANKILNRFLYQMMTTYQEDFHLYEFNGGNLRNAIPREASAVFSVPEHYKHDIRTALNVFTAEIENELHRVEPDLNILLETEPHRDWSIDSSTSYRLITSLYGCPHGVYAMSQDIPGLVETSTNLASVKMKPENTIRIETSQRSSILSSRDDIATTVRAVFRLAGAQVNWGEGYPGWKPNPDSEILKVAEESYKRLFGVDAKVKAIHAGLECGLFLDKYPALDMISFGPTLTGVHSPDERMHIPSVDKFWKHLLDVLAHIPAKN", "values": [
      {"measurement": "soluble on expression in E. coli", "result": "soluble"}
    ]},
    {"sequence": "MAHHHHHHMGQSNGAALAKDTIASEQFLKYQEARHRIVHRAFVKCVVPSSKGKDDGYDLTPEERVCVEEFAILYAGFAKKEFLHFSSLYEQYQRDQYEKMRLEVMQQQARKDIQH", "values": [
      {"measurement": "soluble on expression in E. coli", "result": "not soluble"}
    ]},
    {"sequence": "MGSDKIHHHHHHMMKALILAGGSGERFWPLSTPETPKQFLKLFGNKSLMRWTFERVLEEMDPKDVIVVTHKDYVERTKKELPELPDENIIAEPMKKNTAPACFIGTKLADDDEPVLVLPADHRIPDTKKFWKTVKKALDALEKYDGLFTFGIVPTRPETGYGYIEIGEELEEGVHKVAQFREKPDLETAKKFVESGRFLWNSGMFLWKAREFIEEVKVCEPSIYENLKDVDPRNFEELKKAYEKVPSISVDYAVMEKSKKVRVVKADFEWSDVGNWSSVREIEGYTEESDEVILVDSDRVFVKTHNKPIAVVGLSDVIVIDTPNGILICKEEYAQKVREVVKKLFRTS", "values": [
      {"measurement": "soluble on expression in E. coli", "result": "not soluble"}
    ]},
    {"sequence": "PAKRAFSNADQFVETMLPLAKEAAARIGVDPVMLVAQAALETGWGKSIMRQQDGSSSHNLFGIKAAGSWKGAEARAITSEFRDGKMVKETADFRSYDSYADSFHDLVSLLQNNNRYKDVVNSADKPEQFVKELQKAGYATDPAYASKISQIAKQMKS", "values": [
      {"measurement": "soluble on expression in E. coli", "result": "not soluble"}
    ]},
    {"sequence": "MRSRRGLLIVLSGPSGVGKGTVRKELFSHEDTRFQYSISVTTRKPREGEVDGVDYFFKEREEFEEMIRNEKLLEWAEFVGNYYGTPIDYVEKTLQEGKDVFLEIEVQGAIQVKKAFPEGVFIFLAPPSLSELKNRIVGRGTETEDVIENRLTVAKEEIDMMDAYDYVVENDQVELACERIKAIVVGEHCRRERVAKYYKEMTEGL", "values": [
      {"measurement": "soluble on expression in E. coli", "result": "not soluble"}
    ]},
    {"sequence": "MTDSPGGVAPASPVEDASDASLGQPEEGAPCQVVLQGAELNGILQAFAPLRTSLLDSLLVMGDRGILIHNTIFGEQVFLPLEHSQFSRYRWRGPTAAFLSLVDQKRSLLSVFRANQYPDLRRVELAITGQAPFRTLVQRIWTTTSDGEAVELASETLMKRELTSFVVLVPQGTPDVQLRLTRPQLTKVLNATGADSATPTTFELGVNGKFSVFTTSTCVTFAAREEGVSSSTSTQVQILSNALTKAGQAAANAKTVYGENTHRTFSVVVDDCSMRAVLRRLQVGGGTLKFFLTTPVPSLCVTATGPNAVSAVFLLKPQK", "values": [
      {"measurement": "soluble on expression in E. coli", "result": "soluble"}
    ]},
    {"sequence": "MVKQIESKTAFQEALDAAGDKLVVVDFSATWCGPCKMIKPFFHSLSEKYSNVIFLEVDVDDCQDVASECEVKCMPTFQFFKKGQKVGEFSGANKEKLEATINELV", "values": [
      {"measurement": "soluble on expression in E. coli", "result": "soluble"}
    ]},
    {"sequence": "MIIDCHGHYTTAPAAHDAFRKAQIAHHDDPQQPAPQYPHISDDALRESIEQHQLRLLRERGADMTIFSPRASTMAHHIGNEAVSQVWTQRCNDLIARVVQLYPHTFIGVCQLPQSPGVPISHSIAELERCVNELGFVGCNLNPDPSGGHWNGVPLTDRAWYPFFEKMVELDVPAMVHVSGSCNANFHATGAHYLNADTTAFMQFLEGDLFRDFPSLRFIIPHGGGAVPYHWGRFRGLADMLGKPPLATHVMRNVFFDTCVYHQPGIDLLFEVIDIDNILFGSEMVGAVRGIDPQTGHYFDDTKRYIDALTISDADKRKVFEGNARRVYPRLDAQLRARGLLEHHHHHH", "values": [
      {"measurement": "soluble on expression in E. coli", "result": "not soluble"}
    ]},
    {"sequence": "MGSDKIHHHHHHMNTKKESALSFPSAGIESFGERLKELMGDESLRAFANAIDTSEGGVRKWFTQSTMPSFDKMVRIARRYNVNLEWLCTGEGPKFPGETAAYESVICKTEEFSEEYALIDGYHTQVSTGHGAQWDNERVRRKLAFRSKWLRYRGLQPENLRVVFAKGDSMEPTIHSGDSILVDITDANLSDGSIFVLRIGDDLFAKRVQVHIDGSITIISDNKEYREQRVPVAELGLLSVVGKVVWIGKDVK", "values": [
      {"measurement": "soluble on expression in E. coli", "result": "not soluble"}
    ]},
    {"sequence": "MGSDKIHHHHHHMTLDNPVANKFSIAASQYKQHDVLQRITAKQLLDNAPLFGTLLDVGAGPGTSFNAFNDVEQVVAVDIAHGMLNQLTKQYPDYLPICSDAQALGLQSASIDSIYSNLALQWCQNLPEAFAEFHRVLRQNGECYLSVVVDGSLAELKTLGFRVNQFNSVSAIKAAFIASQDSPNDWLNIDIQVKSISVYFDDLRSLLYSIKGVGASFAQQGENNATHHHPLTKQQWQQRIALAETMRTDKGIPLTYQIAYIRAKRG", "values": [
      {"measurement": "soluble on expression in E. coli", "result": "not soluble"}
    ]},
    {"sequence": "SSVIDKPQVNESAFHRAEPEERESQPETTPQYSPQSVSTTVPERVYQAIDKTPTYPGRTDYEIKPRDRAPSDSSVREARIADSFKRTDWIESKLAPKPNVGKERHAEPAPSKREVHAYHELLKTPDFESQQAEQPTSIESVREVSLPQVTALGKALVVVDEQFVLMSSDSGVALVSLPRSEFYRTKGQLTPSEGALKAQPLLVPLSMKLDTDLVRLAQDYQQDFAQLGIQLKARNDKALMVMGVPAPLRQQNLQNLVPDLLSYAQTWMKGEKASTQMLPALIDWLAVQVTTVKSHYTLSEAIQIIAELEQLRHGQLPLDDKTFVSAVDFSATIAKLKP", "values": [
      {"measurement": "soluble on expression in E. coli", "result": "not soluble"}
    ]},
    {"sequence": "MKAYAKKRISYMPSSPSQNVINFEEIETQKENILPLKEGRSAAALSKAIHQPLVEINQVKSSFEQRLIDELPALSDPITLYLEYIKWLNNAYPQGGNSKQSGMLTLLERCLSHLKDLERYRNDVRFLKIWFWYIELFTRNSFMESRDIFMYMLRNGIGSELASFYEEFTNLLIQKEKFQYAVKILQLGIKNKARPNKVLEDRLNHLLRELGENNIQLGNEISMDSLESTVLGKTRSEFVNRLELANQNGTSSDVNLTKNNVFVDGEESDVELFETPNRGVYRDGWENFDLKAERNKENNLRISLLEANTNLGELKQHEMLSQKKRPYDEKLPIFRDSIGRSDPVYQMINTKDQKPEKIDCNFKLIYCEDEESKGGRLEFSLEEVLAISRNVYKRVRTNRKHPREANLGQEESANQKEAEAQSKRPKISRKALVSKSLTPSNQGRMFSGEEYINCPMTPKGRSTETSDIISAVKPRQLTPILEMRESNSFSQSKNSEIISDDDKSSSSFISYPPQR", "values": [
      {"measurement": "soluble on expression in E. coli", "result": "soluble"}
    ]},
    {"sequence": "GSHMASEKVAVETSVYLSELEWKSASTGYGEIQKDASCDGNTITLKGENGEKVSYDKGIGTHAHSEIVYSLEGLDYYDYFETFVGVDQEMAGTVASISFEVYLDNEKVFDSGLMTGDTTQKHVKVPIAGKNTLKLVVKDGGDSIGSDHGSFGDAKLT", "values": [
      {"measurement": "soluble on expression in E. coli", "result": "soluble"}
    ]},
    {"sequence": "MGSDKIHHHHHHMTGQNPAPDEIVIDTGNPHPARMYDWFLGGKDNYPVDEEMGRQLLALDPRVPVMAKVNRAFMHRATRWLAMNGVRQFLDIGTGIPTEPNLHQIAQQVAPESRVVYCDNDPIVLAHAAALLRSTPEGVTEYVQADVRDPDTIVEQAGKVLDFSKPVALSLVALLHFVSDEDGAYELVDRLLAEVPSGSYLMLSHATADFTPKKSEEAGELYKARSLTLALRSRDEVARFFRDLELVEPGVEVPDKWRPELGEPVPGQDDEPIPGYAAVGRKP", "values": [
      {"measurement": "soluble on expression in E. coli", "result": "not soluble"}
    ]},
    {"sequence": "GMSVPQRPHQFVLTLSCPSAAGQVAAVVGLLDRHRCYVDELTVFDDDLSARFFVRCVFHATDDADALRVDALRREFEPIAERFRMQWAIHDVAARPKVLIMVSKLEHCLADLLFRWKMGELKMDIVGIVSNHPDFAPLAAQHGLPFRHFPITADTKAQQEAQWLDVFETSGAELVILARYMQVLSPEASARLANRAINIHHSFLPGFKGAKPYHQAHARGVKLIGATAHFVTDDLDEGPIIEQVVERVDHSYRPEQLLAVGRDVECITLARAVKAFIERRVFLNGDRTVVFQ", "values": [
      {"measurement": "soluble on expression in E. coli", "result": "soluble"}
    ]},
    {"sequence": "MHHHHHHSSGVDLGTENLYFQSMENRELTYITNSIAEAQRVMAAMLADERLLATVRKVADACIASIAQGGKVLLAGNGGSAADAQHIAGEFVSRFAFDRPGLPAVALTTDTSILTAIGNDYGYEKLFSRQVQALGNEGDVLIGYSTSGKSPNILAAFREAKAKGMTCVGFTGNRGGEMRELCDLLLEVPSADTPKIQEGHLVLGHIVCGLVEHSIFGKQ", "values": [
      {"measurement": "soluble on expression in E. coli", "result": "soluble"}
    ]}
  ]
}
